Experimental data taken from publication PMC10397247.
Blank lines part the entries; values can stand above or below the binder they belong to.

Tests used:
Experiment in all cases: two-hybrid library CCNG1;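 further: natural log of median RNA to DNA barcode read ratio; higher means stronger binding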
[1] = biological target: T1, P1A-bP
T1 chain: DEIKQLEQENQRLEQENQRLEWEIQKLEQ

[2] = biological target: T2, P2A-bP
T2 chain: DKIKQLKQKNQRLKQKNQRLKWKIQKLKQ

[3] = biological target: T3, P3A-bP
T3 chain: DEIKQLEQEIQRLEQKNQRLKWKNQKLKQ

[4] = biological target: T4, P4A-bP
T4 chain: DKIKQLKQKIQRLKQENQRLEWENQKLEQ

[5] = biological target: T5, P5A-bP
T5 chain: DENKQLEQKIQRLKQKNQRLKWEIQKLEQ

[6] = biological target: T6, P6A-bP
T6 chain: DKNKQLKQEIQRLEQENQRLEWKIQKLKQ

[7] = biological target: T7, P7A-bP
T7 chain: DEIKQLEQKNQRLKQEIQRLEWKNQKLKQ

[8] = biological target: T8, P8A-bP
T8 chain: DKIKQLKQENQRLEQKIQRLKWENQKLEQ

[9] = biological target: T9, P9A-bP
T9 chain: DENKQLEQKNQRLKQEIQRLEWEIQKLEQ

[10] = biological target: T10, 4H1373-bA
T10 chain: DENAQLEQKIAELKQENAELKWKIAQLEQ

[11] = biological target: T11, 4H1449-bA
T11 chain: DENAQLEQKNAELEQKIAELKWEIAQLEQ

[12] = biological target: T12, 4H1544-bA
T12 chain: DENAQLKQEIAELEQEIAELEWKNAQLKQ

[13] = biological target: T13, 4H1710-bA
T13 chain: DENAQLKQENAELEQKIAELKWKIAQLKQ

[14] = biological target: T14, 4H1899-bA
T14 chain: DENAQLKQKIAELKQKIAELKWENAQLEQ

[15] = biological target: T15, 4H1985-bA
T15 chain: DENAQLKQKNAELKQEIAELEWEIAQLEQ

[16] = biological target: T16, 4H2691-bA
T16 chain: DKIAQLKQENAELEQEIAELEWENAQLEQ

[17] = biological target: T17, 4H3162-bA
T17 chain: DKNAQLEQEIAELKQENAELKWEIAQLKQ

[18] = biological target: T18, 4H3175-bA
T18 chain: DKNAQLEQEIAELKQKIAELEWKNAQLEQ

[19] = biological target: T19, 4H3277-bA
T19 chain: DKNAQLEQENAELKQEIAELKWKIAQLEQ

[20] = biological target: T20, 4H3298-bA
T20 chain: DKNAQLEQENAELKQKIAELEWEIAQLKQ

[21] = biological target: T21, 4H3462-bA
T21 chain: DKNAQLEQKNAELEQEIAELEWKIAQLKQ

[22] = biological target: T22, 4H3497-bA
T22 chain: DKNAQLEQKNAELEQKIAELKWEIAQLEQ

[23] = biological target: T23, 4H3613-bA
T23 chain: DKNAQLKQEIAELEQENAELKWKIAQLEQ

[24] = biological target: T24, 4H3628-bA
T24 chain: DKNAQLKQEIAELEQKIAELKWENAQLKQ

[25] = biological target: T25, 4H3817-bA
T25 chain: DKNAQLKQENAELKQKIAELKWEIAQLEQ

[26] = biological target: T26, 4H3858-bA
T26 chain: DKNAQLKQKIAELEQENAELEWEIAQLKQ

[27] = biological target: T27, 4H3926-bA
T27 chain: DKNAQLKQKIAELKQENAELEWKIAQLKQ

[28] = biological target: T28, 4H3974-bA
T28 chain: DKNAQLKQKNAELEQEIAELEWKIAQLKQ

[29] = biological target: T29, 4H570-bA
T29 chain: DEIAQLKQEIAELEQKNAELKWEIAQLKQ

[30] = biological target: T30, 4H591-bA
T30 chain: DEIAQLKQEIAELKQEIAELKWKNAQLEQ

[31] = biological target: T31, 4H619-bN
T31 chain: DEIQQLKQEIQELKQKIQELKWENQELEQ

[32] = biological target: T32, 4H626-bA
T32 chain: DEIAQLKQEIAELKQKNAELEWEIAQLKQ

[33] = biological target: T33, 4H850-bA
T33 chain: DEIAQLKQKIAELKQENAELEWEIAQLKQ

[34] = biological target: T34, 4H906-bA
T34 chain: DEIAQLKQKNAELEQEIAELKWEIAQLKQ

- interaction score [1]: -1.8
- interaction score [2]: 1.97
- interaction score [3]: -0.629
- interaction score [4]: -1.23
- interaction score [5]: -0.589
- interaction score [6]: -0.151
- interaction score [7]: -0.745
- interaction score [8]: -0.0351
- interaction score [9]: -2.64
B1: P1A-bP (peptide)
chain: DEIKQLEQENQRLEQENQRLEWEIQKLEQ

- interaction score [10]: 0.464
- interaction score [11]: -1.22
- interaction score [12]: -0.914
- interaction score [13]: -0.946
- interaction score [14]: -1.03
- interaction score [15]: -0.533
- interaction score [16]: 0.119
- interaction score [17]: -0.314
- interaction score [18]: -0.89
- interaction score [19]: -0.594
- interaction score [20]: -0.776
- interaction score [21]: -0.757
- interaction score [22]: -1.17
- interaction score [23]: 1.71
- interaction score [24]: -0.805
- interaction score [25]: -0.693
- interaction score [26]: 1.36
- interaction score [27]: 2.27
- interaction score [28]: -0.681
- interaction score [29]: -0.799
- interaction score [30]: -0.592
- interaction score [31]: -0.473
- interaction score [32]: -1.61
- interaction score [33]: -0.104
- interaction score [34]: -1.26
B2: 4H1373-bA (peptide)
chain: DENAQLEQKIAELKQENAELKWKIAQLEQ
